# Test results published in paper PMC3813429, “New Insight to Structure-Function Relationship of GalNAc Mediated Primary Interaction between Insecticidal Cry1Ac Toxin and HaALP Receptor of Helicoverpa armigera” (PLoS ONE, 2013).
# B1: HaALP, membrane bound alkaline phosphatase of Helicoverpa armigera (receptor)
# chain: HWLHPAAPAAASRAETSANYWAQDAQAAINARLERVESVKKAHNVIMFLGDGMSVPTLAAARTLLGQRQGKTGEETKLHFETFPTIGLVKTYCVDAQIADSACTATAYLCGVKNNYGAIGVDGTVRRGDCQAASNTATHVESIAEWALADGRDVGIVTTTRITHASPAGTFAKTANRTWENDGEVSQMGLDAKDCPDIAHQLVHHHPGNKFKVIFGGGRRAFLPNTVQDDEGSYGRRIDNRDLIQEWKNDKDSRNVSHQYLWQREQLMNLNDDLPEYMLGLFESSHMEYHLKSDPQTEPTLAELTEVAIRSLRRNEKGFFLFVEGGRIDHAHHDNLVELALDETLEMDKAVATATKMLSEDDSLIVVTADHAHVMTINGYSGRGNDILGPSRDVGRDRMPYMTLSYTNGPGFRPHVNDIRQNVTAEPNYRTLDWESHVDVPLVDETHGGDDVAVFARGPHHSMFTGLYEQSQLPHLMAYAACIGPGRHACASAAHLPSAHFFVALPALFISILLR
# modifications: glycan with α-GalNAc at the non-reducing terminal (site not stated)
# Target: Cry1Ac WT toxin (Bacillus thuringiensis)
# Experiment: SPR
# Conditions: both partners purified
binder,measurement,value
B1,Kd,7.68 nM
same,koff,0.00129 s⁻¹
same,kon,168000 M⁻¹ s⁻¹
